The source of these data is the DeepSol protein solubility set.

The nature of the data set: soluble on expression in E. coli; label from the status in PepcDB or PDB records.
Take “MAHHHHHHMNLNKKNEELEKVKIVLTQKIKNLESNLSPKESEIKVMREKIDEMAKSFENNHKKRVNLQIEINEYKMKIKFLHDDLLNYNKTIMNYEKILKNLQDHIKECYLHLHDKKIFNSSFLNLYNKFHKVNDVQNYDAKNVFSEYIRQKEYLENMIEVLKDKLHKETEAFRNEKIKMMNENSLLLKEINDLKMDLNFLKSECHEAQLQNRKMKFLKKRSESKERKKEKKEKKEKKEKKENKDNNEEKNIDIK”: the “soluble on expression in E. coli” value is “soluble”.

Regarding “MFTKSCAKATDQNRQELFMDSLLGDFQKMKEKALNQQQERRSKKRELHCKSSEKTKKPNQYAALTHSQVQEVKAKVRTVNDKFHLNAEEKKLWELILLGNQLAQNISSCDLPTDNEDDASLVKLTQIFADETLERTDLTWLNKILKIALYSRGSGFGNCQEKAFFVFALLLHQAQKPESLIHSLRLATFNNHFILIVNEQFLMDPWLNLAFPLSKGNQQLEIGYVFERFGRLVNYFSINQEGQCFTHTVREGGTIERDPSSEKDMANCIHSLLDHRDYFDLSIVSEREIHTNTKRRKYENQEQEVPQPRQETSNQPTETVYTDSSHNTWDNEGAADDFLEHFEQTHPVYNPGFFSFGQDDVGLKPDLPKNLFKF”, the “soluble on expression in E. coli” value is reported as “not soluble”.

Take “MGSSHHHHHHGGTGENLYFQGGSGLLSHHCIYPSRMFGDGRLLMDTSISGGMLLGLDVCGGVKLWPQHQYTAVELILPSALSGVREVLVPPVSMSGAGEESQRASEAGSGKQRASSPPLPRNLPGSRVIRIIHEASEIPAEVAGSYNSALNGSRRKGSKAMRSLDRGPAGTSGGRASSSIVPRYFDEFHRLRSQRVMEGSLKTVLEATNASIIGEARLRRQRRRYAVKHNKTIFIKGKTAAGDEQ”: the “soluble on expression in E. coli” value was “not soluble”.

“MKKKIIIAIVASAITMTHFVGNTYADSKTEVSVTAPYNTNQIAKWLEAHAKPLKTTNPTASLNDLKPLKNMVGSASIVGLGEATHGAHEVFTMKHRIVKYLVSEKGFTNLVLEEGWDRALELDRYVLTGKGNPSQHLTPVFKTKEMLDLLDWIRQYNANPKHKSKVRVIGMDIQSVNENVYNNIIEYIKANNSKLLPRVEEKIKGLIPVTKDMNTFESLTKEEKEKYVLDAKTISALLEENKSYLNGKSKEFAWIKQNARIIEQFTTMLATPPDKPADFYLKHDIAMYENAKWTEEHLGKTIVWGHNGHVSKTNMLSFIYPKVAGQHLAEYYGKRYVSIGTSVYEGQYNVKNSDGEFGPYGTLKSDDPNSYNYIFGQVKKDQFFIDLRKANGVTKTWLNEQHPIFAGITTEGPDIPKTVDISLGKAFDILVQIQKVSPSQVHQLEHHHHHH”: the “soluble on expression in E. coli” value is “soluble”.

For “EEYSKAELVVREYVASEGREFFISFEIPEYDALVGFVRLRFPKEPFIEVLRDAALIRELHVYGRAVPIGQSSDAFQHRGFGERLLKEAEEIAKEEYDRIAVISGVGVRDYYRKLGYRLRQGYMVKKL”, the “soluble on expression in E. coli” value is listed as “not soluble”.

On to “GPGSMIMKASGAAVLHAVREKMQEATVAALIVTSSDAHNSEYVATHLQSRAFISHFQGSAGTALITMEKALLWTDGRYWLAAEEEKYPEFDLMKQGQPEVPSLEEWIAANLGSKAVVGMSPYVATVAEWERLSKKINLRPVANIVQDMMPPEKSVRKMYVRPAEFCGATCQERRAAILAELEKKDCDMIILSALDEIAWFTNLRGGDVDYNPVFYAYAVIDKHYENVRLYVNLDKVTDAVRQACEDHIDFYPYEQFEADLKQLPRGRKALVDERQTSEAVFRILKDVGTVTVRVVCGPAQKLKAIKNEVELKGFRDCHVRDGAALTRYLAWLHDQVANKGVTDLNEYDAATKLEEFRAQGEHFVQLSFGSISSIGPNGAMCHYSPAETGSAAIRRDQLYLIDSGAHYWDGTTDVTRTICFTAPSDEQREAYTLVLKGHIALNSIIFPKGTSGVRLDTLARMALWGVGLDYAHGTGHGVGSFLNVHEGPHGISTRPVATGANMELHSIVSNEPGYYKDGHYGIRIENLEEVVECRTKYSATGFYTMSHLTMAPLCRDLIDVSLLTETERAWVDRYHAKVVASIMPHLQQAGDQNAVEYLKYHTRPLFAVNEAYTLLSPDGKGAK”, for which the “soluble on expression in E. coli” value is given as “not soluble”.

Consider “MRGSHHHHHHGMASMTGGQQMGRDLYDDDDKMSVIKPEMKMKYFMDGSVNGHEFTVEGEGTGKPYEGKHKITLDVTKGGPLPFAFDLLSTVFSYGNRCLTKYPDDIPDYFKQCFPGGYSWERKFEFEDGGLAIAKAEISLKGNCFEHKSTIEGTFPDSSPIAQNKTLGWEPSTEKMTVRDGSMKGDDAAYLKLVGGGNHKCYFTTTYTAKKKIPNLPQSHFIGHRISSVVNGTKIGVMEDAIAHLYPFNGVPCQ”, for which the “soluble on expression in E. coli” value is “soluble”.

Regarding “MVSETSEETLYCIGCGAAIQTTDPKAAGYTPNSALQKSLASEAQDLYCQRCFRLRHYNEIVPVGLTDDDFRHLLATIRDANALVVYVVDIFDLNGSIIPGLQRFVGDNPVLLVGNKEDVLPRQLRRTKLREWMNQQVRAQGIKPVDVALTSAKKGHSIDELLAMIEKYRRGRDVYVVGVTNVGKSTLINRIIANNTGLKDLITTSRFPGTTLDKIEIPLDDGHMMVDTPGIIHPEQMAHVLSGDDLKLVSPQREIRPKGFQLGNGQTLFLGGVARLDIVDTLKATGTVYVDNNLPLHRTRTENADNFYTKHVGELITPPTGDAVADFPPLVRHEFKVTEISDIVFEGLGWVTVAADTRVAAWAPKGVAVLTRPAMINKRLEHHHHHH”, the “soluble on expression in E. coli” value is given as “soluble”.

As to “MNIGVIILAAGEGKRFGGDKLLAKIDNTPIIMRTIRIYGDLEKIIIVGKYVNEMLPLLMDQIVIYNPFWNEGISTSLKLGLRFFKDYDAVLVALGDMPFVTKEDVNKIINTFKPNCKAVIPTHKGERGNPVLISKSLFNEIEKLRGDVGARVILNKIKIEELCFIECSEGVLIDIDKKEDLMRLRDFHPLEHHHHHH”, the “soluble on expression in E. coli” value is reported as “soluble”.

As to “RKRYYNTIEDMKGKIRVYCRIRPLNEKESSEREKQMLTTVDEFTVEHPWKDDKRKQHIYDRVFDMRASQDDIFEDTKYLVQSAVDGYNVCIFAYGQTGSGKTFTIYGHESNPGLTPRATKELFNILKRDSKRFSFSLKAYMVELYQDTLVDLLLPKSARRLKLEIKKDSKGMVFVENVTTIPISTLEELRMILERGSERRHVSGTNMNEESSRSHLILSVVIESIDLQTQSAARGKLSFVDLAGSERVKKSGSAGNQLKEAQSINKSLSALGDVIGALSSGNQHIPYRNHKLTMLMSDSLGGNAKTLMFVNVSPAESNLDETYNSLLYASRVRTIVNDPSKHISSKEMVRLKKLVAYWKEQAGKKGEEEDLVDIEEDRTRKDEADS”, the “soluble on expression in E. coli” value is listed as “soluble”.

For “MGSDKIHHHHHHMTGNQMFCRENELDESFKQLASYINIPVGVLLPFKSQCFVRHYNKGQIVYYSSDETTHIYLLLKGNIMRENFNLNGDVYRYLNREKVLFPLNNLFQDKVPNEMCTALTDCEMIGIPRDLIEYLCKNHEEIFVKLFSLLSETQCQHIEYNMALTSKLAKERVTKILRYLCQTVGYDHDEFYEIKHFMTIQLLSDMAGISRETTSHIINELREEKILFKNSKNWLVSKDL”, the “soluble on expression in E. coli” value was “not soluble”.

Take “MKIVDANVLLYAVNTTSEHHKPSLRWLDGALSGADRVGFAWVPLLAFVRLATKVGLFPRPLPREAAITQVADWLAAPSAVLVNPTVRHADILARMLTYVGTGANLVNDAHLAALAVEHRASIVSYDSDFGRFEGVRWDQPPALL”: the “soluble on expression in E. coli” value is listed as “soluble”.

For the sequence “MGSDKIHHHHHHMDSVSPELISNNQGYDRSHKQRLECLICNYHVDLNDKSAFSTFFCNVRAFRDEKFPIWRCPTCQTIHCLDVVDIDSYYAKYPFAEAKLTLPFRLCYQNLCQKMIEHGFSKTHSFLDYGCGNGLVVQYLRENGFANAYGYDPYAPKESFGDATVLQRGPFDYILLQDIIEHVEDPHALLSKLDSLLAPGGYLLLGTPNATNIDINRPELSNYYNAVHVPYHIHIYTREVVESLGKQQGWEVVKFFNRGYDDTRWFGLNTRTWNEYQSISDGTFDVIFEEINIWQALKSYRFLFYAFFGYWLSLRTDMTIMFRKKITD”, the “soluble on expression in E. coli” value is given as “not soluble”.

On to “MTGPEPVPAGPPPDPTPPRRAGSVWAHVGQHFTEEAFDIVVIGAGRMGAACAFYLRQLAPGRSLLLVEEGGLPNEEGATILAPGVWTAQDIPAGQEAQAEWTREQLLGALGSGKTLEVEDRPLLHLLPAGEGSGLTPTLDALADFPEALALLDPARLPVARVDPRALTYRPGSLALLAAQQAIGQGAGLLLNTRAELVPGGVRLHRLTVTNTHQIVVHETRQIRAGVIIVAAGAAGPALVEQGLGLHTRHGRAYRQFPRLDLLSGAQTPVLRASGLTLRPQNGGYTLVPAIHHRDPHGYHPAGGSLTGVPTGLRRELLEDLVGLMDAVPALAGEGLELGRSSADVPGAWLALPGGRPDAPPQAEELAPGLHLLLGGPLADTLGLAAAHELAQRVSASLEHHHHHH”, for which the “soluble on expression in E. coli” value is recorded as “soluble”.

On to “MGSDKIHHHHHHADDDTPVVTLGTSLTDSQRNGTLKTLTAPLNGGNYQTITVTGSDLVKYLNPSGDNFTTSSGVWSSAMIQKTSSGSGINVKILDYNGKNNITTITANQYKNAALTAGITDANIYVTSAVPIDGSGALAGVYAAYAKNGNALNQKQVNAAQDEMNTLSGITQDNKNKEGYSDAQLNNAVAGAKSEMAKQGQNISDSQIRDIVNNQININHLGNTINNNQKNQIVNLLIEIRDSGALKNGSFKSQASKLSSQIQNGAKNIFNKFNTQENRSWLQQLWDNVVNFFSHIFG”, for which the “soluble on expression in E. coli” value is on record as “not soluble”.

Turning to “MIKNPKVLILTAHYGNGHVQVAKTLEQTFRQKGIEDVIVCDLFGESHPFITDITKYLYLKSYTIGKELYRLFYYGVEKIYDKKIASWYANFGRKRLKTLLQVEKPDIVINTFPIIAVPELKKQTGISIPVYNVLTDFCVHKIWIHREVDRYFVATDHVKELMVDIGVPAEQIVETGIPIRSSFELKVNPEIIYTKYQLCKNKKILLIVAGAHGVLGNVKELCQSFMSVPNLQVVVVCGKNEALKQDLLSLQKQNSDALKVFGYVENIDELFRVTSCMITKPGGITLSEAAALQVPVILYKPVPGQENENAMYFERKGAAVVIRDDSEVFAKTEALLQDDVKLLQMKEAMKSIYLPEPAGHIVDAILAENHAEPRHIPIKSPALAQSFTLEHHHHHH”, the “soluble on expression in E. coli” value is on record as “not soluble”.

“MLPFVFNADDDGKRVQNEEGNYDPTDHQRQMEDYYKQYEEQRVANSFHNTTGRPDLVAMQARLAETEQAIHRLNEEKKQPPPGFPIMTTPATQPEISIPRSGENKSSRSPSWAREARRSRSRSRDRRGGRSRSRSPSRRRTSRDRRDDRSSRRRRGPIINQLS”: the “soluble on expression in E. coli” value is on record as “soluble”.

Take “MTKCPKCKKIMLTKELDKNMRVCMNCDYHFPMNAKQRIESLMDEQSFEEFNQGMLSENPLGFPGYLEKLEKDREKTSLNEAVVTGKGTIGGHPAVVAVMDSSFRMGSMGSVVGEKITLAIEKAKADKVPFIIFTASGGARMQEGVLSLMQMAKTSSALKLFSEEQGLIISVMTHPTTGGVSASFASLGDYNFAEPGALIGFAGRRIIEQTIGEKLPEDFQTAEFLLKHGQLDAVIHRDDMKKTLENLLDMHQTGGDIEWLQDLEHHHHHH”: the “soluble on expression in E. coli” value is listed as “not soluble”.
